B1: Apolipoprotein A-IV: plasma/CSF protein bound to fibrils (protein, UniProt P06727 21-396, looked up)
Apolipoprotein A-IV: EVSADQVATVMWDYFSQLSNNAKEAVEHLQKSELTQQLNALFQDKLGEVNTYAGDLQKKLVPFATELHERLAKDSEKLKEEIGKELEELRARLLPHANEVSQKIGDNLRELQQRLEPYADQLRTQVSTQAEQLRRQLTPYAQRMERVLRENADSLQASLRPHADELKAKIDQNVEELKGRLTPYADEFKVKIDQTVEELRRSLAPYAQDTQEKLNHQLEGLTFQMKKNAEELKARISASAEELRQRLAPLAEDVRGNLRGNTEGLQKSLAELGGHLDQQVEEFRRRVEPYGENFNKALVQQMEQLRQKLGPHAGDVEGHLSFLEKDLRDKVNSFFSTFKEKESQDKTLSLPELEQQQEQQQEQQQEQVQMLAPLES
B2: Histidine-rich glycoprotein (protein, UniProt P04196 19-525, looked up)
Histidine-rich glycoprotein: VSPTDCSAVEPEAEKALDLINKRRRDGYLFQLLRIADAHLDRVENTTVYYLVLDVQESDCSVLSRKYWNDCEPPDSRRPSEIVIGQCKVIATRHSHESQDLRVIDFNCTTSSVSSALANTKDSPVLIDFFEDTERYRKQANKALEKYKEENDDFASFRVDRIERVARVRGGEGTGYFVDFSVRNCPRHHFPRHPNVFGFCRADLFYDVEALDLESPKNLVINCEVFDPQEHENINGVPPHLGHPFHWGGHERSSTTKPPFKPHGSRDHHHPHKPHEHGPPPPPDERDHSHGPPLPQGPPPLLPMSCSSCQHATFGTNGAQRHSHNNNSSDLHPHKHHSHEQHPHGHHPHAHHPHEHDTHRQHPHGHHPHGHHPHGHHPHGHHPHGHHPHCHDFQDYGPCDPPPHNQGHCCHGHGPPPGHLRRRGPGKGPRPFHCRQIGSVYRLPPLRKGEVLPLPEANFPSFPLPHHKHPLKPDNQPFPQSVSESCPGKFKSGFPQVSMFFTHTFPK
B3: Ig γ -3 chain C region: plasma/CSF protein bound to fibrils (protein, UniProt P01860 1-446, looked up)
Immunoglobulin heavy constant …: ASTKGPSVFPLAPCSRSTSGGTAALGCLVKDYFPEPVTVSWNSGALTSGVHTFPAVLQSSGLYSLSSVVTVPSSSLGTQTYTCNVNHKPSNTKVDKRVELKTPLGDTTHTCPRCPEPKSCDTPPPCPRCPEPKSCDTPPPCPRCPEPKSCDTPPPCPRCPAPELLGGPSVFLFPPKPKDTLMISRTPEVTCVVVDVSHEDPEVQFKWYVDGVEVHNAKTKPREEQYNSTFRVVSVLTVLHQDWLNGKEYKCKVSNKALPAPIEKTISKTKGQPREPQVYTLPPSREEMTKNQVSLTCLVKGFYPSDIAVEWESSGQPENNYNTTPPMLDSDGSFFLYSKLTVDKSRWQQGNIFSCSVMHEALHNRFTQKSLSLSPELQLEESCAEAQDGELDGLWTTITIFITLFLLSVCYSATVTFFKVKWIFSSVVDLKQTIIPDYRNMIGQGA

Key:
αSN fibrils [1] = molecular target: T1, αSN fibrils (Homo sapiens, UniProt P37840); assay: Fibril incubation with plasma, quantitative MS/MS of bound proteins; assay type: binding; set-up: key to Identification status of plasma protein bound: αSN: *: Identified, but not quantified; —: Not identified in any of the samples; conditions: for Identification status of plasma protein bound: αSN: symbol cells
Procedure: (§1) Plasma and CSF solutions were centrifuged (40,000 g, 20 min) to remove any aggregates. The protein concentration was determined using 280 nm absorbance assuming 1 Abs = 1 mg/mL. […] Control samples (without fibril material) were prepared similarly. All samples were incubated at room temperature for one hour under gentle agitation. Fibrils and fibril-bound proteins were pelleted by centrifugation at 17,000 g for 30 minutes. The supernatant (175 μL) was removed and the aggregate was re-suspended in 175 μL PBS and pelleted again before further preparation for gel analysis and spin-filter assisted digest for quantitative MS/MS.
(§2) The fibril-protein pellets were transferred to spin-filters (0.22 μm), washed twice in PBS (100 μL) and once in 1 M NaCl (100 μL). The fibrils and fibril-bound proteins were dissolved by one-hour incubation in 100 μL 6 M guanidinium chloride followed by elution from the spin-filter. The eluted proteins were loaded onto a 3 kDa MWCO filter unit for filter-assisted unfolding, reduction, alkylation, and trypsin digestion. In brief, samples were washed twice in 8 M urea, once in 8 M urea with 50 mM DTT, once in 8 M urea with 50 mM iodoaceteamide, and twice in 8 M Urea. The filter units were dried by centrifugation (14,000 g in 30 minutes) after every addition. Trypsin digestion was carried out with 0.25 μg sequencing grade trypsin from Sigma Aldrich in 50 mM ammonium bicarbonate overnight at 37 °C. The tryptic peptides were collected by centrifugation, acidified with TFA (0.1%) and micro-purified using POROS R2 column material (Applied Biosystems) packed in P200 pipette tips (Sarstedt).
(§3) LC-MS/MS analyses were performed on an EASY-nLC II system (Thermo Fisher Scientific) connected to a TripleTOF 5600+ mass spectrometer (Sciex) equipped with a NanoSpray III source (Sciex) and operated under Analyst TF 1.6.0 control.
(§4) The micro-purified tryptic peptides were dissolved in 0.1% formic acid, injected and trapped on an in-house packed trap column (2 cm × 100 μm I.D) with RP ReproSil-Pur C18-AQ 3 μm resin (Dr. Maisch GmbH). Peptides were eluted from the trap column and separated on a 15 cm analytical column (75 μm i.d.) packed in-house in a pulled emitter with RP ReproSil-Pur C18-AQ 3 μm resin (Dr. Maisch GmbH). Elution from the analytical column was performed with a linear gradient from 5% to 35% phase B (90% acetonitrile with 0.1% formic acid) over 20 min for protein identification and 50 min for quantitative analysis, respectively.
(§5) All samples were analysed three times, yielding nine MS/MS experiments for each fibril for both plasma and CSF. For the area-based extracted ion chromatogram (XIC) quantification, the acquisition method was set up as an information-dependent acquisition (IDA) experiment collecting up to 25 MS/MS spectra in each 1.6 sec cycle using an exclusion window of 6 sec.
(§6) XIC quantification was based on the average ion intensity of the three most abundant peptides for each protein. Only proteins quantified in at least four out of nine MS/MS experiments per fibril were included in the quantification. The total ion scores were visualized after grouping the proteins according to function (Figure S11).
(§7) For each MS/MS experiment, the ion intensities of the individual proteins were normalized to the total ion intensity of that MS/MS experiment to achieve a relative protein composition. The contribution of each protein was averaged over all nine MS/MS experiments (Tables 1 and 2).

FAS4-AD aggregates [2] = tested on: T2, FAS4-AD aggregates; assay: as above; assay type: binding, human; set-up: key to Identification status of plasma protein bound: FAS4-AD: *: Identified, but not quantified; —: Not identified in any of the samples; conditions: for Identification status of plasma protein bound: FAS4-AD: symbol cells
T2 construct: aggregates of a mutated version of the FAS1-4 domain of TGFBIp
Procedure: as §1, §2, §3, §4, §5, §6, §7

C-36 fibrils [3] = molecular target: T3, C-36 fibrils (Homo sapiens, UniProt P01009); assay: Fibril incubation with CSF, quantitative MS/MS of bound proteins; assay type: binding; set-up: key to Identification status of CSF protein bound: C-36: *: Identified, but not quantified; —: Not identified in any of the samples; conditions: for Identification status of CSF protein bound: C-36: symbol cells
T3 construct: the 36 residue C-terminal fragment of α1-antitrypsin (C-36)
T3 sequence (P01009 383-418 limits assumed): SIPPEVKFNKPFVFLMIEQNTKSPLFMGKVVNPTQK

FAS4-AD aggregates [4] = tested on: T2, FAS4-AD aggregates; assay: as above; assay type: binding, human; set-up: key to Identification status of CSF protein bound: FAS4-AD: *: Identified, but not quantified; —: Not identified in any of the samples; conditions: symbol cells
glucagon fibrils [5] = molecular target: T4, glucagon fibrils (Homo sapiens, UniProt P01275); assay: Fibril incubation with plasma, quantitative MS/MS of bound proteins; assay type: binding; conditions: 50:1 w/w plasma protein:fibril
T4 construct: fibrils of the peptide hormone glucagon
T4 sequence (P01275 53-81 limits assumed): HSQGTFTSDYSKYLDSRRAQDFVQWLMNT
Procedure: as §1, §2, §3, §4, §5, §6, §7

glucagon fibrils [6] = molecular target: T4, glucagon fibrils; assay: Fibril incubation with CSF, quantitative MS/MS of bound proteins; assay type: binding; conditions: 4:1 w/w CSF protein:fibril
C-36 fibrils [7] = molecular target: T3, C-36 fibrils; assay: Fibril incubation with plasma, quantitative MS/MS of bound proteins; assay type: binding; set-up: key to Identification status of plasma protein bound: C-36: *: Identified, but not quantified; —: Not identified in any of the samples; conditions: for Identification status of plasma protein bound: C-36: symbol cells
Procedure: as §1, §2, §3, §4, §5, §6, §7

Ab1 fibrils [8] = tested on: T5, Ab1 fibrils; assay: as above; assay type: binding, human; conditions: 50:1 w/w plasma protein:fibril
T5 construct: Synthetic amyloid β peptide 1–40 was purchased from Caslo Aps (Lyngby, Denmark); purchased Caslo Aps (Lyngby, Denmark); host or cells: synthetic peptide
Procedure: Plasma and CSF solutions were centrifuged (40,000 g, 20 min) to remove any aggregates. The protein concentration was determined using 280 nm absorbance assuming 1 Abs = 1 mg/mL. […] Control samples (without fibril material) were prepared similarly. All samples were incubated at room temperature for one hour under gentle agitation. Fibrils and fibril-bound proteins were pelleted by centrifugation at 17,000 g for 30 minutes. The supernatant (175 μL) was removed and the aggregate was re-suspended in 175 μL PBS and pelleted again before further preparation for gel analysis and spin-filter assisted digest for quantitative MS/MS.
as §2, §3, §4, §5, §6, §7

Ab2 fibrils [9] = tested on: T6, Ab2 fibrils; assay: as above; assay type: binding, human; conditions: 50:1 w/w plasma protein:fibril
T6 construct: Two structurally distinct fibrils of the Aβ(1–40) peptide associated with AD
Procedure: as §1, §2, §3, §4, §5, §6, §7

Ab1 fibrils [10] = tested on: T5, Ab1 fibrils; assay: Fibril incubation with CSF, quantitative MS/MS of bound proteins; assay type: binding, human; conditions: 4:1 w/w CSF protein:fibril
αSN fibrils [11] = molecular target: T1, αSN fibrils; assay: as above; assay type: binding; set-up: key to Identification status of CSF protein bound: αSN: *: Identified, but not quantified; —: Not identified in any of the samples; conditions: for Identification status of CSF protein bound: αSN: symbol cells
Ab2 fibrils [12] = tested on: T6, Ab2 fibrils; assay: as above; assay type: binding, human; conditions: 4:1 w/w CSF protein:fibril

Row | Molecule | Relative composition of plasma proteins bound: αSN (αSN fibrils [1]; 50:1 w/w plasma protein:fibril) | Relative composition of plasma proteins bound: FAS4-AD (FAS4-AD aggregates [2]; 50:1 w/w plasma protein:fibril) | Relative composition of CSF proteins bound: C-36 (C-36 fibrils [3]; 4:1 w/w CSF protein:fibril) | Identification status of CSF protein bound: FAS4-AD (FAS4-AD aggregates [4]) | Relative composition of plasma proteins bound: Glucagon (glucagon fibrils [5]) | Relative composition of CSF proteins bound: Glucagon (glucagon fibrils [6]) | Relative composition of plasma proteins bound: C-36 (C-36 fibrils [7]; 50:1 w/w plasma protein:fibril) | Relative composition of plasma proteins bound: Ab1 (Ab1 fibrils [8]) | Relative composition of plasma proteins bound: Ab2 (Ab2 fibrils [9]) | Relative composition of CSF proteins bound: Ab1 (Ab1 fibrils [10]) | Relative composition of CSF proteins bound: αSN (αSN fibrils [11]; 4:1 w/w CSF protein:fibril) | Relative composition of CSF proteins bound: Ab2 (Ab2 fibrils [12]) | Identification status of plasma protein bound: αSN (αSN fibrils [1]) | Identification status of plasma protein bound: FAS4-AD (FAS4-AD aggregates [2]) | Identification status of CSF protein bound: C-36 (C-36 fibrils [3]) | Identification status of plasma protein bound: C-36 (C-36 fibrils [7]) | Identification status of CSF protein bound: αSN (αSN fibrils [11])
1 | B1 | 3.8 ± 0.6 % of total protein | 1.6 ± 0.2 % of total protein | 1.0 ± 0.1 % of total protein | — | 1.9 ± 0.2 % of total protein | 0.5 ± 0.1 % of total protein | 2.4 ± 0.4 % of total protein | 2.7 ± 0.1 % of total protein | 3.5 ± 0.5 % of total protein | 1.2 ± 0.1 % of total protein | 1.5 ± 0.2 % of total protein | 0.5 ± 0.0 % of total protein |  |  |  |  | 
2 | B2 |  |  |  | — | 0.4 ± 0.0 % of total protein | 0.1 ± 0.0 % of total protein |  | 2.5 ± 0.1 % of total protein | 1.8 ± 0.1 % of total protein | 0.4 ± 0.1 % of total protein |  | 0.6 ± 0.2 % of total protein | — | — | * | — | —
3 | B3 |  |  |  | — | 1.0 ± 0.1 % of total protein | 1.4 ± 0.5 % of total protein |  | 1.0 ± 0.1 % of total protein | 1.1 ± 0.1 % of total protein | 2.5 ± 0.1 % of total protein |  | 3.0 ± 0.2 % of total protein | * | — | * | * | *

Reference: publication PMC6405930, “Conservation of the Amyloid Interactome Across Diverse Fibrillar Structures” (Scientific Reports, 2019)
